# Results reported in US11129879B2, “Methods for the treatment of neurological disorders and diseases using FNDC5” (Dana-Farber Cancer Institute, Inc., priority 2013, dated 2021).
# B1: BDNF: recombinant human brain-derived neurotrophic factor, PeproTech (protein)
# chain: HSDPARRGELSVCDSISEWVTAADKKTAVDMSGGTVTVLEKVPVSKGQLKQYFYETKCNPMGYTKEGCRGIDKRHWNSQCRTTQSYVRALTMDSKKRIGWRFIRIDTSCVCTLTIKRGR
# B2: NGF: recombinant mouse nerve growth factor, EMD Millipore (protein, UniProt P01139 122-241, looked up)
# Beta-nerve growth factor: SSTHPVFHMGEFSVCDSVSVWVGDKTTATDIKGKEVTVLAEVNINNSVFRQYFFETKCRASNPVESGCRGIDSKHWNSYCTTTHTFVKALTTDEKQAAWRFIRIDTACVCVLSRKATRRG
# B3: GDNF: recombinant human glial cell-derived neurotrophic factor, Sigma (protein, UniProt P39905 78-211, looked up)
# Glial cell line-derived …: SPDKQMAVLPRRERNRQAAAANPENSRGKGRRGQRGKNRGCVLTAIHLNVTDLGLGYETKEELIFRYCSGSCDAAETTYDKILKNLSRNRRLVSDKVGQACCRPIAFDDDLSFLDDNLVYHILRKHSAKRCGCI
# B4: irisinFc: Fc fusion of irisin (murine Fndc5 residues 29-140); amino acid sequence given in b228 (protein)
# chain: DSPSAPVNVTVRHLKANSAVVSWDVLEDEVVIGFAISQQKKDVRMLRFIQEVNTTTRSCALWDLEEDTEYIVHVQAISIQGQSPASEPVLFKTPREAEKMASKNKDEVTMKEGGGGAGGGGVECPPCPAPPVAGPSVFLFPPKPKDTLMISRTPEVTCVVVDVSHEDPEVQFNWYVDGVEVHNAKTKPREEQFNSTFRVVSVLTVVHQDWLNGKEYKCKVSNKGLPAPIEKTISKTKGQPREPQVYTLPPSREEMTKNQVSLTCLVKGFYPSDIAVEWESNGQPENNYKTTPPMLDSDGSFFLYSKLTVDKSRWQQGNVFSCSVMHEALHNHYTQKSLSLSPGK
# modifications: /note=“Description of Artificial Sequence IrisinFc polypeptide”
# B5: recombinant irisin: commercially available recombinant irisin, secreted form of FNDC5 (Phoenix Pharmaceuticals; Enzo in b292) (protein, UniProt Q8NAU1 1-191, looked up)
# Irisin: MQAARGGAGRPERPGRPGRGPERERERPPGAGAASPCAAPGLPAGGATIHPGSPSAWPPRARAALRLWLGCVCFALVQADSPSAPVNVTVRHLKANSAVVSWDVLEDEVVIGFAISQQKKDVRMLRFIQEVNTTTRSCALWDLEEDTEYIVHVQAISIQGQSPASEPVLFKTPREAEKMASKNKDEVTMKE
# modifications: Irisin
# B6: CNTF: recombinant human ciliary neurotrophic factor, Sigma (protein, UniProt P26441 1-200, looked up)
# Ciliary neurotrophic factor: MAFTEHSPLTPHRRDLCSRSIWLARKIRSDLTALTESYVKHQGLNKNINLDSADGMPVASTDQWSELTEAERLQENLQAYRTFHVLLARLLEDQQVHFTPTEGDFHQAIHTLLLQVAAFAYQIEELMILLEYKIPRNEADGMPINVGDGGLFEKKLWGLKVLQELSQWTVRSIHDLRFISSHQTGIPARGSHYIANNKKM
# Key:
# [1] = system: primary cortical neurons; experiment: gene expression by qPCR in cultured primary cortical neurons; format: cell-based, mouse; conditions: for Fndc5 gene expression: 1 μM; for Fndc5 gene expression / Fndc5 mRNA expression: DIV 7, vs vehicle; for Fndc5 mRNA expression: 100 ng/ml
# Experimental: (§1) Primary cortical and hippocampal neurons were isolated as described in great detail previously in Bartlett and Banker (1984) J. Neurosci. 4, 1944-1953. Briefly, cortices and hippocampi were dissected from E16-E18 embryos, dissociated with trypsin (Sigma) and DNAse (Roche), and plated on poly-L-lysine-coated (Sigma) plates. Dissociated neurons were cultured in Neurobasal Media supplemented with B27, GlutaMAX™ (Life Technologies), and Penicillin-Streptomycin (Cellgro).
# (§2) Cells or tissues were lysed and homogenized in TRIzol (Invitrogen). Total RNA was subsequently isolated using the RNeasy Mini or Micro Kit (Qiagen). First-strand cDNA was generated using the High Capacity cDNA Reverse Transcription Kit (Life Technologies), and qPCR was performed using SYBR Green Master Mix in a 7900HT Real-Time PCR system (Applied Biosystems). mRNA quantities were normalized to Rsp18 after determination by the comparative Ct method (Schmittgen and Livak (2008) Nat. Protocols 3, 1101-1108).
# Primary cortical neurons were transduced at the indicated time-points and were harvested 48 hrs later for RNA isolation. For knockdown studies, primary cortical neurons were transduced with viral supernatants from HEK293T cells transfected with pLKO.1 vector (TRC) containing the specified shRNAs at the indicated time-points.
# [2] = system: substantia nigra; conditions: 4 mg/kg/d, harvested 2 days later, microarray, vs untreated mice; cited from earlier work
# [3] = system: SH-SSY5Y neurons; experiment: Fndc5 gene expression by qPCR in SH-SSY5Y neurons; format: cell-based, human; conditions: treatment with the neurotoxin
# Experimental: The cells were differentiated with retinoic acid. Gene expression was assessed with qPCR.
# [4] = system: primary hippocampal neurons; experiment: gene expression by qPCR in cultured primary hippocampal neurons; format: cell-based, mouse
# Experimental: At the indicated days in vitro (DIV) mRNA was prepared and gene expression was assessed by qPCR. Data are shown as mRNA levels relative to Rsp18 expression, expressed as mean±SEM. *P<0.05 compared to DIV 1 control group. […] Forty-eight hours later mRNA was prepared and gene expression was assessed by qPCR. Data are shown as mRNA levels relative to Rsp18 expression, expressed as mean±SEM. *P<0.05 compared to corresponding GFP expressing control group. […] Four days later mRNA was prepared and gene expression was assessed by qPCR. Data are shown as mRNA levels relative to Rsp18 expression, expressed as mean±SEM. *P<0.05 compared to corresponding shLuc expressing control group. […] Data are shown as mRNA levels relative to Rsp18 expression, expressed as mean±SEM. *P<0.05 compared to vehicle only group. […] Four days later mRNA was prepared and gene expression was assessed by qPCR. Data are shown as mRNA levels relative to Rsp18 expression, expressed as mean±SEM. *P<0.05 compared to corresponding shLuc expressing control group. […] Data are shown as mRNA levels relative to Rsp18 expression, expressed as mean±SEM. *P<0.05 compared to vehicle only group.
# as §1
# as §2, with “Total RNA was subsequently isolated using the RNeasy Mini or Micro Kit (Qiagen).” left out
# [5] = system: primary cortical neurons; experiment: CellTiter-Glo Luminescent Cell Viability Assay of cultured neurons; format: cell-based, mouse; conditions: treatment during in vitro culture for 7 days, relative to hFc
# Experimental: Cell viability of cultured neurons was assessed using CellTiter-Glo® Luminescent Cell Viability Assay (Promega, Madison, Wis.) according to the manufacturer's instructions. Luminescence of cell lysates was measured using the FLUOstar Omega plate reader (BMG LABTECH, Offenburg, Germany).
# [6] = system: primary cortical neurons; experiment: binding of irisinFc to PFA-fixed cultured neurons, detected by secondary anti-human Fc fluorescent antibody; design: species or system mouse; conditions: PFA-fixed cultures, vs humanFc
# Experimental: PFA-fixed cultured primary cortical neurons were incubated with either irisin-Fc or humanFc as control and binding of irisinFc was detected by a secondary anti-human Fc fluorescent antibody. IrisinFc clearly binds to neurons in culture, especially given that the observed pattern of the binding and the fact that the cultures are highly enriched in neurons (>90%).
# [7] = system: Wild type C56/B16 mice; experiment: peripheral injections of irisin-Fc, Bdnf gene expression by qPCR; format: in vivo, mouse; conditions: 5 mg/kg i.p., RNA 10d later, vs humanFc
# Experimental: Wild type C56/B16 mice were injected with either irisinFc or humanFc (5 mg/kg) i.p. Total RNA for qPCR was harvested 10d later. Results are shown as mean+SEM, n=6, *P<0.05.
# [8] = system: human embryonic stem cells differentiated into motor neurons (eMN); experiment: human embryonic stem cells differentiated into motor neurons (eMN), gene expression by qPCR; format: cell-based
# Experimental: Gene expression was assessed with qPCR.
# Growth of human embryonic stem cells, differentiation of human embryonic stem cells into motor neurons, and glial co-culture were performed as described in DiGiorgio et al. (2008) Cell Stem Cell 3:637-648.
# [9] = system: primary cortical neurons; experiment: irisin stimulation of silenced primary cortical neurons, mRNA levels of genes of interest; format: cell-based, mouse; conditions: 1 ug/mL (Enzo) at DIV7 after silencing with 1 uM TTX and 100 uM APV; time course, p<0.05 from baseline
# Experimental: Primary cortical neurons were silenced at DIV6 with 1 uM TTX and 100 uM APV overnight. The neurons were then stimulated at DIV7 using irisin (1 ug/mL; Enzo; Product No. ADI-908-307-0010). […] In a separate analysis, primary cortical neurons were silenced at DIV6 with 1 uM TTX and 10 uM MK801 overnight. […] In still a separate analysis, primary cortical neurons were silenced at DIV6 with 1 uM TTX and 100 uM APS overnight. The neurons were then stimulated at […] using irisin (1 ug/mL; Enzo; Product No. ADI-908-307-0010). […] In yet another separate analysis, primary cortical neurons were silenced at DIV7 with 1 uM TTX and 100 uM APS overnight. The neurons were then stimulated at DIV8 using 1 ug/mL of irisin from one of two vendors (i.e., either from Enzo, Product No. ADI-908-307-0010, or from Phoenix, Product No. 067-29A).
# [10] = 5× concentrated conditioned media from CHO cell lines, RNA next day, vs hFc
# [11] = 1 ug/ml at DIV 5 and 6, vs vehicle
molecule,measurement,setting,value
"CCN(CC)c1ccc(/C=N/NC(=O)c2ccc(O)cc2)cc1 [DY131, reference compound]",Fndc5 gene expression,[1]; overnight,had no effect on Fndc5 gene expression
"Cc1cc(SCc2sc(-c3ccc(C(F)(F)F)c(F)c3)nc2C)ccc1OCC(=O)O [GW0742, reference compound]",Fndc5 gene expression,[1]; overnight,no effect on Fndc5 gene expression
"CC(C)(Sc1ccc(CCN(CCCCC2CCCCC2)C(=O)NC2CCCCC2)cc1)C(=O)O [GW7647, reference compound]",Fndc5 gene expression,[1]; overnight,no effect on Fndc5 gene expression
"COC(=O)[C@@]1(O)C[C@H]2O[C@]1(C)n1c3ccccc3c3c4c(c5c6ccccc6n2c5c31)C(=O)NC4 [K252a, reference compound]",reduction of Fndc5 mRNA expression by BDNF,"[1]; pre-incubation with 50 nM, then BDNF 100 ng/ml overnight",This effect was abolished
"CN1CC=C(c2ccccc2)CC1 [MPTP, 1-methyl-4-phenyl-1,2,3,6-tetrahydropyridine]",Fndc5 expression in substantia nigra,[2],significantly lower Fndc5 expression
"COc1cc(/C=C(\C#N)C(=O)Nc2nnc(C(F)(F)F)s2)ccc1OCc1ccc(C(F)(F)F)cc1C(F)(F)F [XCT 790, reference compound]",Fndc5 gene expression,[1]; overnight,significantly reduced Fndc5 gene expression
C=C(C)[C@H]1Cc2c(ccc3c2O[C@@H]2COc4cc(OC)c(OC)cc4[C@@H]2C3=O)O1 [rotenone],Fndc5 gene expression,[3],reduces Fndc5 gene expression
"IGF-1: recombinant mouse insulin-like growth factor 1, R&D Systems",Fndc5 mRNA expression,[1]; overnight,only BDNF stimulation significantly reduced
B1,Fndc5 mRNA expression,[1]; overnight,only BDNF stimulation significantly reduced Fndc5 mRNA expression
same,lowest concentration that significantly reduced Fndc5 gene expression,"[1]; overnight, 0.1-100 ng/ml tested, dose-response observed",1 ng/mL
same,Fndc5 gene expression,"[4]; 100 ng/ml, overnight, DIV 7, vs vehicle",reduced Fndc5 gene expression
B2,Fndc5 mRNA expression,[1]; overnight,only BDNF stimulation significantly reduced
B3,Fndc5 mRNA expression,[1]; overnight,only BDNF stimulation significantly reduced
B4,Bdnf expression,[1]; [10],increased expression of Fndc5 and Bdnf
same,Fndc5 expression,[1]; [10],increased expression of Fndc5 and Bdnf
same,cell viability,[5],significantly increased cell viability
same,binding to neurons,[6],neurons bind irisinFc
same,Bdnf expression in the cerebellum,[7],significant increase in Bdnf expression
same,Bdnf expression in the sciatic nerve,[7],significant increase in Bdnf expression
same,eMN synapse formation,[8],increases eMN synapse formation
same,motor neuron differentiation of eMN,[8],promotes motor neuron differentiation
B5,Bdnf gene expression,[4]; [11],did not reach statistical significance
same,"gene program (Arc, cFos, Npas4, and Zif268)",[4]; [11],induced a similar gene program
same,changes in mRNA levels of genes of interest,[9],many of the analyzed genes have statistically significant changes
B6,Fndc5 mRNA expression,[1]; overnight,only BDNF stimulation significantly reduced
